Target: T1, human thrombin (Homo sapiens, UniProt P00734)
T1 construct: biotin (chemical label)
Experiment: mRNA display selection against thrombin, selected sequences ranked by next-generation-sequencing frequency
Format: binding
Settings: for percentage (%): share of recovered sequences; for counts: top binders ranked by frequency
Method: 1 ml of the fusions from the previous step were added to 50 ul of M270 SA beads blocked with TBSTE+2% BSA at room temperature, and were incubated at room temperature for 30 min, and the supernatant was removed for binding with biotinylated thrombin.
8) Pre-Selected Fusions were Bound to 3 ul Biotinylated Human Thrombin at 1 U/ul at 4° C. for 1 h with Rotation
25 ul of M270 SA bead suspension was washed and blocked with TBSTE+2% BSA. The beads were then collected, mixed with 1 ml of each fusion/target complex, and incubated at room temperature for 30 min. The mixture was washed 3× in TBSTE, transferred to a new tube, and the cDNA was eluted with 50 ul of 0.1 N NaOH at room temperature for 3 min. Then 2.5 ul 3M NaAc, pH5.5. BioRad spin column was added and the volume was adjusted to 147 ul with H2O.
The following rounds of selections (3-5) were carried out following the above procedure with increased stringency (e.g. lower amounts of fusion molecule input and increased number of washing steps). After each round of selection, similar PCR amplification was done to prepare the DNA library for the next round of selection.
In summary, for example, one round of mRNA display consisted of the following steps: in vitro transcription, DNase digestion, conjugation with the puromycin oligo linker, in vitro translation/fusion formation, FLAG fusion molecule purification, reverse transcription, pre-selection or functional selection, and regeneration of the selected sequences. Briefly, the cDNA library was in vitro transcribed using T7 RNA polymerase, the mRNA templates with puromycin at the 3′ ends were generated by crosslinking with an oligonucleotide containing a psoralen residue and a puromycin residue at its 5′ and 3′ ends, respectively, and in vitro translation was performed using an NEB Purexpress Δ123 kit. The desired mRNA-protein fusions were then isolated from the translation reaction mixture using anti-FLAG magnetic beads. The fusion molecules were then converted into DNA/RNA hybrids through reverse transcription. This step removed secondary mRNA structures that might interfere with the subsequent selection.
To analyze the results of the selection, the DNA libraries were amplified after each round of selection using specially-designed sequencing primers that harbor Illumina next-generation-sequencing adapters. The libraries were mixed, further purified and next generation sequencing was performed. Peptide sequences recovered after each round of selection were called out according to their unique sequencing barcode and further comparison and analysis was done. Next-generation-sequencing provided the advantages of high throughput and a more complete overview of the selected species.
When thrombin was used as a target, a total of three rounds of selections were carried out. The selection pressure was increased by increasing the washing stringency (from three times to five times then to ten times for selection round 1, 2 and 3). Table 1 illustrates the top binders (ranked according to their frequency) after each round of selection. After selection round 3, more than 30% of the selected peptides contained the conserved “RDPGR” (SEQ ID NO:331) motif. The most abundant peptide “RDPGRLIFQS” (SEQ ID NO:332) was chosen for further analysis.

[1] = Round 2 of selection, five washes
[2] = Round 1 of selection, three washes
[3] = Round 3 of selection, ten washes

Row | percentage (%) [1] [%] | counts [1] | percentage (%) [2] [%] | counts [2] | percentage (%) [3] [%] | counts [3] | Substance
1 |  |  | 1.2E−03 | 40 |  |  | HCDTLELRPA (MGCTSVHQETKKYQSHCDTLELRPASYTYNYEHVDVWGCGSADYKDDDDKKK)
2 | 0.0109 | 179 | 1.3E−03 | 42 |  |  | HRLQIATVYT (MGCTSVHQETKKYQSHRLQIATVYTSYTYNYEHVDVWGCGSADYKDDDDKKK)
3 |  |  | 1.2E−03 | 38 |  |  | LQRAISSYSR (MGCTSVHQETKKYQSLQRAISSYSRSYTYNYEHVDVWGCGSADYKDDDDKKK)
4 |  |  | 1.4E−03 | 44 |  |  | PPVLPQLVLL (MGCTSVHQETKKYQSPPVLPQLVLLSYTYNYEHVDVWGCGSADYKDDDDKKK)
5 |  |  |  |  | 0.025 | 211 | QMSFRFEVRV (MGCTSVHQETKKYQSQMSFRFEVRVSYTYNYEHVDVWGCGSADYKDDDDKKK)
6 | 0.0475 | 781 |  |  | 1.144 | 9534 | RDPGRIVFNN (MGCTSVHQETKKYQSRDPGRIVFNNSYTYNYEHVDVWGCGSADYKDDDDKKK)
7 |  |  | 1.4E−03 | 46 |  |  | RFHLFILGTS (MGCTSVHQETKKYQSRFHLFILGTSSYTYNYEHVDVWGCGSADYKDDDDKKK)
8 | 0.0052 | 86 |  |  |  |  | RTKIK*NGL*
9 |  |  |  |  | 0.023 | 195 | SIEFGLTFSF (MGCTSVHQETKKYQSSIEFGLTFSFSYTYNYEHVDVWGCGSADYKDDDDKKK)
10 |  |  |  |  | 0.027 | 224 | SLFVEYRITY (MGCTSVHQETKKYQSSLFVEYRITYSYTYNYEHVDVWGCGSADYKDDDDKKK)
11 | 0.0051 | 84 |  |  | 0.021 | 175 | VTSTYMFMYA

The remaining lines, values behind:

Row | Substance | percentage (%) [1] [%] | counts [1] | percentage (%) [2] [%] | counts [2] | percentage (%) [3] [%] | counts [3]
12 | AAVRLNSSS* | 0.0046 | 75 |  |  |  | 
13 | ETRIYIRFHT (MGCTSVHQETKKYQSETRIYIRFHTSYTYNYEHVDVWGCGSADYKDDDDKKK) | 0.0052 | 86 |  |  |  | 
14 | KCCTSMVIQL (MGCTSVHQETKKYQSKCCTSMVIQLSYTYNYEHVDVWGCGSADYKDDDDKKK) |  |  | 1.2E−03 | 38 |  | 
15 | LKQTDFRTPI (MGCTSVHQETKKYQSLKQTDFRTPISYTYNYEHVDVWGCGSADYKDDDDKKK) |  |  | 1.2E−03 | 39 |  | 
16 | PLIHPRRGYA (MGCTSVHQETKKYQSPLIHPRRGYASYTYNYEHVDVWGCGSADYKDDDDKKK) |  |  | 1.3E−03 | 43 |  | 
17 | QFHLEFAFTL (MGCTSVHQETKKYQSQFHLEFAFTLSYTYNYEHVDVWGCGSADYKDDDDKKK) |  |  |  |  | 0.020 | 164
18 | RDPGRLIFQS (MGCTSVHQETKKYQSRDPGRLIFQSSYTYNYEHVDVWGCGSADYKDDDDKKK) | 0.1608 | 2642 |  |  | 20.512 | 170914
19 | RDPGRVIFEI (MGCTSVHQETKKYQSRDPGRVIFEISYTYNYEHVDVWGCGSADYKDDDDKKK) | 0.0993 | 1632 |  |  | 10.038 | 83638
20 | RDPYNVLISL (MGCTSVHQETKKYQSRDPYNVLISLSYTYNYEHVDVWGCGSADYKDDDDKKK) | 0.0170 | 278 |  |  | 0.084 | 702
21 | RSHGQFSFTF (MGCTSVHQETKKYQSRSHGQFSFTFSYTYNYEHVDVWGCGSADYKDDDDKKK) |  |  |  |  | 0.031 | 258
22 | SQSERATPRY (MGCTSVHQETKKYQSSQSERATPRYSYTYNYEHVDVWGCGSADYKDDDDKKK) |  |  | 1.5E−03 | 47 |  | 
23 | TQPKLTIEQR |  |  | 1.3E−03 | 42 |  | 
24 | VVEFHFKWCI | 0.0046 | 75 |  |  |  | 

From patent US20160312212A1, “COW ANTIBODY SCAFFOLD POLYPEPTIDE METHOD AND COMPOSITION” (Roche Sequencing Solutions, Inc., priority 2015, published 2016)
